Source: publication PMC9205782, “Identifying amyloid-related diseases by mapping mutations in low-complexity protein domains to pathologies” (Nature Structural & Molecular Biology, 2022)

Legend:
[1] = target: the molecule itself; assay: crystal structure; peptide microcrystals grown by hanging drop vapor diffusion; SGMGGIT: 0.1 M phosphate/citrate pH 4.2, 40% ethanol, 5% PEG 1000; SGMGCIT: 0.2 M sodium citrate, 0.1 M HEPES pH 7.5, 20% 2-propanol; GGYAGAS: 2.5 M NaCl, 100 mM sodium acetate pH 4.5, 0.2 M lithium sulfate; data at 100 K
[2] = target: the molecule itself; assay: X-ray fiber powder diffraction of aggregates; aggregated samples centrifuged, exchanged into water, dried between capillaries; cross-beta pattern
[3] = target: the molecule itself; assay: thioflavin T fluorescence on cooling (reversible aggregation, phase separation); same sample concentrations as the aggregation assay; held at 37 °C, cooled to 4 °C for 60 minutes, warmed back to 37 °C
[4] = target: the molecule itself; assay: Western blot of tissue extracts; extracts of human liver tissue (three ASH, one HCC) on a gel, blotted with anti-cytokeratin 8 (C51)

Protein | binding result [1] | binding result [3] | also measured
SGMGGIT (keratin-8 (KRT8), human, head domain segment, residues 58-64; Crystallised as an amyloid-like fibril of stacked identical strands (anti-parallel class-7 steric zipper) with PEG 1000 and ethanol; also called 58SGMGGIT64; source: synthetic peptide, bought: GenScript) [KRT8_(58–64) wild-type segment SGMGGIT] | binds | – | –
SGMGCIT (G62C is found in people with cryptogenic liver disease; Crystallised as a class-2 parallel steric zipper with isopropanol; also called 58SGMGCIT64; KRT8-G62C segment; source: synthetic peptide, bought: GenScript) [KRT8_(58–64) G62C segment SGMGCIT] | binds | – | –
KRT8_(1–90) Y54H with N-terminal mCherry (domain or fragment, human, UniProt P05787 1-90, looked up, keratin-8 (KRT8), human, head domain, residues 1-90, variant Y54H; Variant found in people with cryptogenic liver disease; source: bacterial cultures, purified (Ni-NTA)) MSIRVTQKSYKVSTSGPRAFSSRSYTSGPGSRISSSSFSRVGSSNFRGGLGGGHGGASGMGGITAVTVNQSLLSPLVLEVDPNIQAVRTQ | – | – | binding result [2]: binds
KRT8_(1–90) G55A with N-terminal mCherry (domain or fragment, human, UniProt P05787 1-90, looked up, keratin-8 (KRT8), human, head domain, residues 1-90, variant G55A; Variant found in people with cryptogenic liver disease; source: bacterial cultures, purified (Ni-NTA)) MSIRVTQKSYKVSTSGPRAFSSRSYTSGPGSRISSSSFSRVGSSNFRGGLGGGYAGASGMGGITAVTVNQSLLSPLVLEVDPNIQAVRTQ | – | – | binding result [2]: binds
KRT8_(1–90) G62C with N-terminal mCherry (domain or fragment, human, UniProt P05787 1-90, looked up, keratin-8 (KRT8), human, head domain, residues 1-90, variant G62C; Variant found in people with cryptogenic liver disease; source: bacterial cultures, purified (Ni-NTA)) MSIRVTQKSYKVSTSGPRAFSSRSYTSGPGSRISSSSFSRVGSSNFRGGLGGGYGGASGMGCITAVTVNQSLLSPLVLEVDPNIQAVRTQ | – | binds | –
KRT8 in human liver tissue extracts (natural protein, human (endogenous in liver tissue), UniProt P05787 1-483, looked up, keratin-8 (KRT8), endogenous in human liver; monomer band at 52 KDa; also called keratin-8; cytokeratin 8; source: endogenous, extracts of human liver tissue (ASH or HCC)) MSIRVTQKSYKVSTSGPRAFSSRSYTSGPGSRISSSSFSRVGSSNFRGGLGGGYGGASGMGGITAVTVNQSLLSPLVLEVDPNIQAVRTQEKEQIKTLNNKFASFIDKVRFLEQQNKMLETKWSLLQQQKTARSNMDNMFESYINNLRRQLETLGQEKLKLEAELGNMQGLVEDFKNKYEDEINKRTEMENEFVLIKKDVDEAYMNKVELESRLEGLTDEINFLRQLYEEEIRELQSQISDTSVVLSMDNSRSLDMDSIIAEVKAQYEDIANRSRAEAESMYQIKYEELQSLAGKHGDDLRRTKTEISEMNRNISRLQAEIEGLKGQRASLEAAIADAEQRGELAIKDANAKLSELEAALQRAKQDMARQLREYQELMNVKLALDIEIATYRKLLEGEESRLESGMQNMSIHTKTTSGYAGGLSSAYGGLTSPGLSYSLGSSFGSGAGSSSFSRTSSSRAVVVKKIETRDGKLVSESSDVLPK | – | – | stoichiometry N [4]: 2
GGYAGAS (G55A is found in people with cryptogenic liver disease; Crystallised as an anti-parallel class-6 steric zipper; also called 52GGYAGAS58; source: synthetic peptide, bought: GenScript) [KRT8_(52–58)-G55A segment GGYAGAS] | binds | – | –
FUS_(1–214), wild type, with N-terminal mCherry (domain or fragment, human, UniProt P35637 1-214, looked up, FUS, human, residues 1-214; also called wild-type FUS; source: bacterial cultures, purified (Ni-NTA)) MASNDYTQQATQSYGAYPTQPGQGYSQQSSQPYGQQSYSGYSQSTDTSGYGQSSYSSYGQSQNTGYGTQSTPQGYGSTGGYGSSQSSQSSYGQQSSYPGYGQQPAPSSTSGSYGSSSQSSSYGQPQSGSYSQQPSYGGQQQSYGQQQSYNPPQGYGQQNQYNSSSGGGGGGGGGGNYGQDQSSMSSGGGSGGGYGNQDQSGGGGSGGYGQQDRG | – | binds | –
KRT8_(1–90), head domain of keratin-8, wild type, with N-terminal mCherry (domain or fragment, human, keratin-8 (KRT8), human, head domain, residues 1-90 as stated; No removal of mCherry or the His tag is described; also called WT KRT8_(1-90); wild-type KRT8; source: bacterial cultures, purified (Ni-NTA)) SIRVTQKSYKVSTSGPRAFSSRSYTSGPGSRISSSSFSRVGSSNFRGGLGGGYGGASGMGGITAVTVNQSLLSPLVLEVDPNIQAVRTQ | – | binds | –
